From article PMC2819048
Where a chain is given by its changes, count along the chain named.

Key:
Assay in all cases: SPR
[1] = biological target: T1, DnaC (Escherichia coli, UniProt P0AEF0 1-245)
T1 sequence: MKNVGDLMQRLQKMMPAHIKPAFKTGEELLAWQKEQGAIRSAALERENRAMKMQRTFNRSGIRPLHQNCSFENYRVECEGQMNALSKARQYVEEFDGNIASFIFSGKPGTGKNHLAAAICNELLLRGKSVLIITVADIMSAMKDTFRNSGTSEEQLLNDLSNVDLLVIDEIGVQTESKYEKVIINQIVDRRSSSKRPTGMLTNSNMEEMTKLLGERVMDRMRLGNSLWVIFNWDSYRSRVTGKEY

[2] = biological target: T2, DnaC R220A (Escherichia coli, UniProt P0AEF0 1-245, R220A)
T2 sequence: T1 sequence with R220A

[3] = biological target: T3, DnaC R216A (Escherichia coli, UniProt P0AEF0 1-245, R216A)
T3 sequence: T1 sequence with R216A

## CATCCAATAAATCATACACAAGGC (ssDNA) [5'-biotinylated oligonucleotide]
[1]
  binding signal: ~2.4 fold stronger than without ATP
[2]
  binding signal: 1.7 fold stronger than without ATP
[3]
  binding result: binds
